Results on two proteins are retold here after paper PMC10980208, “A novel micellular fluorogenic substrate for quantitating the activity of 1-phosphatidylinositol 4,5-bisphosphate phosphodiesterase gamma (PLCγ) enzymes” (PLOS ONE, 2024).

Substrate in this data set: CCCCCCCCCCCCCCCCOc1cc(COC(=O)Nc2ccc3c(C(F)(F)F)cc(=O)oc3c2)ccc1OP(=O)(O)O[C@@H]1[C@H](O)[C@H](O)[C@@H](OP(=O)(O)O)[C@H](OP(=O)(O)O)[C@H]1O
Nature of the data set: purified protein. The note with it: Ca2+.

B1: PLCγ2 (Homo sapiens) (protein)
chain: MSTTVNVDSLAEYEKSQIKRALELGTVMTVFSFRKSTPERRTVQVIMETRQVAWSKTADKIEGFLDIMEIKEIRPGKNSKDFERAKAVRQKEDCCFTILYGTQFVLSTLSLAADSKEDAVNWLSGLKILHQEAMNASTPTIIESWLRKQIYSVDQTRRNSISLRELKTILPLINFKVSSAKFLKDKFVEIGAHKDELSFEQFHLFYKKLMFEQQKSILDEFKKDSSVFILGNTDRPDASAVYLHDFQRFLIHEQQEHWAQDLNKVRERMTKFIDDTMRETAEPFLFVDEFLTYLFSRENSIWDEKYDAVDMQDMNNPLSHYWISSSHNTYLTGDQLRSESSPEAYIRCLRMGCRCIELDCWDGPDGKPVIYHGWTRTTKIKFDDVVQAIKDHAFVTSSFPVILSIEEHCSVEQQRHMAKAFKEVFGDLLLTKPTEASADQLPSPSQLREKIIIKHKKLGPRGDVDVNMEDKKDEHKQQGELYMWDSIDQKWTRHYCAIADAKLSFSDDIEQTMEEEVPQDIPPTELHFGEKWFHKKVEKRTSAEKLLQEYCMETGGKDGTFLVRESETFPNDYTLSFWRSGRVQHCRIRSTMEGGTLKYYLTDNLTFSSIYALIQHYRETHLRCAEFELRLTDPVPNPNPHESKPWYYDSLSRGEAEDMLMRIPRDGAFLIRKREGSDSYAITFRARGKVKHCRINRDGRHFVLGTSAYFESLVELVSYYEKHSLYRKMRLRYPVTPELLERYNMERDINSLYDVSRMYVDPSEINPSMPQRTVKALYDYKAKRSDELSFCRGALIHNVSKEPGGWWKGDYGTRIQQYFPSNYVEDISTADFEELEKQIIEDNPLGSLCRGILDLNTYNVVKAPQGKNQKSFVFILEPKQQGDPPVEFATDRVEELFEWFQSIREITWKIDTKENNMKYWEKNQSIAIELSDLVVYCKPTSKTKDNLENPDFREIRSFVETKADSIIRQKPVDLLKYNQKGLTRVYPKGQRVDSSNYDPFRLWLCGSQMVALNFQTADKYMQMNHALFSLNGRTGYVLQPESMRTEKYDPMPPESQRKILMTLTVKVLGARHLPKLGRSIACPFVEVEICGAEYDNNKFKTTVVNDNGLSPIWAPTQEKVTFEIYDPNLAFLRFVVYEEDMFSDPNFLAHATYPIKAVKSGFRSVPLKNGYSEDIELASLLVFCEMRPVLESEEELYSSCRQLRRRQEELNNQLFLYDTHQNLRNANRDALVKEFSVNENQLQLYQEKCNKRLREKRVSNSKFYS
As for B1, the Km – broadly, the substrate concentration at which the rate is half of its maximum – is 4.6 ± 0.8 µM; the Vmax (in general, the rate approached at saturating substrate) was 0.019 µmol/min/mg; the kcat – broadly, the number of substrate molecules converted per active site and unit of time at saturation – was 0.045 ± 0.00333 s⁻¹; the kcat/Km (in general, the turnover number divided by the Michaelis constant) is 10000 ± 1670 M⁻¹ s⁻¹.

B2: PLCγ1 (Homo sapiens) (protein)
chain: AGAASPCANGCGPGAPSDAEVLHLCRSLEVGTVMTLFYSKKSQRPERKTFQVKLETRQITWSRGADKIEGAIDIREIKEIRPGKTSRDFDRYQEDPAFRPDQSHCFVILYGMEFRLKTLSLQATSEDEVNMWIKGLTWLMEDTLQAPTPLQIERWLRKQFYSVDRNREDRISAKDLKNMLSQVNYRVPNMRFLRERLTDLEQRSGDITYGQFAQLYRSLMYSAQKTMDLPFLEASTLRAGERPELCRVSLPEFQQFLLDYQGELWAVDRLQVQEFMLSFLRDPLREIEEPYFFLDEFVTFLFSKENSVWNSQLDAVCPDTMNNPLSHYWISSSHNTYLTGDQFSSESSLEAYARCLRMGCRCIELDCWDGPDGMPVIYHGHTLTTKIKFSDVLHTIKEHAFVASEYPVILSIEDHCSIAQQRNMAQYFKKVLGDTLLTKPVEISADGLPSPNQLKRKILIKHKKLAEGSAYEEVPTSMMYSENDISNSIKNGILYLEDPVNHEWYPHYFVLTSSKIYYSEETSSDQGNEDEEEPKEVSSSTELHSNEKWFHGKLGAGRDGRHIAERLLTEYCIETGAPDGSFLVRESETFVGDYTLSFWRNGKVQHCRIHSRQDAGTPKFFLTDNLVFDSLYDLITHYQQVPLRCNEFEMRLSEPVPQTNAHESKEWYHASLTRAQAEHMLMRVPRDGAFLVRKRNEPNSYAISFRAEGKIKHCRVQQEGQTVMLGNSEFDSLVDLISYYEKHPLYRKMKLRYPINEEALEKIGTAEPDYGALYEGRNPGFYVEANPMPTFKCAVKALFDYKAQREDELTFIKSAIIQNVEKQEGGWWRGDYGGKKQLWFPSNYVEEMVNPVALEPEREHLDENSPLGDLLRGVLDVPACQIAIRPEGKNNRLFVFSISMASVAHWSLDVAADSQEELQDWVKKIREVAQTADARLTEGKIMERRKKIALELSELVVYCRPVPFDEEKIGTERACYRDMSSFPETKAEKYVNKAKGKKFLQYNRLQLSRIYPKGQRLDSSNYDPLPMWICGSQLVALNFQTPDKPMQMNQALFMTGRHCGYVLQPSTMRDEAFDPFDKSSLRGLEPCAISIEVLGARHLPKNGRGIVCPFVEIEVAGAEYDSTKQKTEFVVDNGLNPVWPAKPFHFQISNPEFAFLRFVVYEEDMFSDQNFLAQATFPVKGLKTGYRAVPLKNNYSEDLELASLLIKIDIFPAKENGDLSPFSGTSLRERGSDASGQLFHGRAREGSFESRYQQPFEDFRISQEHLADHFDSRERRAPRRTRVNGDNRL
Consider B2, for which the Km was found to be 27.7 ± 14.5 µM, the Vmax amounted to 0.35 µmol/min/mg, the kcat stood at 0.833 ± 0.367 s⁻¹ and the kcat/Km was 32700 ± 6670 M⁻¹ s⁻¹.
